Reference: paper PMC10855866, “Structural Analysis of Breast-Milk αS1-Casein: An α-Helical Conformation Is Required for TLR4-Stimulation” (International Journal of Molecular Sciences, 2024)

Experiments:
αS1-casein (Bos taurus) = αS1-casein (Bos taurus) (UniProt P02662); assay: SPR; conditions: cited from earlier work
[1] = molecular target: T1, Toll-like receptor 4 (TLR4) (UniProt O00206 24-839); assay: cell-based or functional assay
[2] = molecular target: T1, Toll-like receptor 4 (TLR4); assay: flow cytometry on cells; TLR4+ cells (HEK293 transfected with TLR4/MD2/CD14) and TLR4- cells incubated 24 h with 500 nM αS1-casein or a truncated variant; detected with murine anti-His6 IgG and Dylight633 anti-murine IgG; conditions: one partner purified
[3] = molecular target: Toll-like receptor 4 (TLR4) (UniProt O00206)
Sequence of Toll-like receptor 4 (TLR4) (UniProt O00206) (O00206 24-839): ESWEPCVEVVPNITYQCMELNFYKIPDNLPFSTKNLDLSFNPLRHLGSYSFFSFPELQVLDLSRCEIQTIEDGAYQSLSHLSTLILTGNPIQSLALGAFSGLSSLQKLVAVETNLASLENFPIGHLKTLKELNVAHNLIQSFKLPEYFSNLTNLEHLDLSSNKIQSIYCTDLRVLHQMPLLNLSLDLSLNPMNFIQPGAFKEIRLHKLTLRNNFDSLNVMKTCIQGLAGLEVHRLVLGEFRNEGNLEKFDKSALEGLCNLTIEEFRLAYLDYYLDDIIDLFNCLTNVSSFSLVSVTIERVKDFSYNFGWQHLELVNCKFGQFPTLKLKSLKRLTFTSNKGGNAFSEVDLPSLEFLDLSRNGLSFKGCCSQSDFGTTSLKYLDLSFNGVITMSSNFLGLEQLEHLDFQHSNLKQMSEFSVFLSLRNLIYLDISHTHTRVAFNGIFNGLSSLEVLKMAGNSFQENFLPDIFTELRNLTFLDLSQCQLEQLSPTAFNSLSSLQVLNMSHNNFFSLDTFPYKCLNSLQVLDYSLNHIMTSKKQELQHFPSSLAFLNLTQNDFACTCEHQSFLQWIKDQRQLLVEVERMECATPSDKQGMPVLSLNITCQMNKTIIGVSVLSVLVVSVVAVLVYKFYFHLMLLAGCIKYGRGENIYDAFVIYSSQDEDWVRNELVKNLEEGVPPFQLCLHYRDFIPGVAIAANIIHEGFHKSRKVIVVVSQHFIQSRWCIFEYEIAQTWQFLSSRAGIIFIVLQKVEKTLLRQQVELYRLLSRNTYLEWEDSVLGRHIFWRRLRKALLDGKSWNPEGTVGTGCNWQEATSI

[4] = molecular target: the molecule itself; assay: MST; FITC-αS1-casein (25 nM) mixed with unlabelled αS1-casein in serial dilution; sonicated 15 min, incubated 1 h at 37 °C; 20 mM HEPES pH 7.2, 0.5% BSA, 0.0025% Tween-20; oligomer step not resolved
[5] = molecular target: the molecule itself; assay: SPR; αS1-casein or P-αS1-casein immobilised on a CMDP-5 chip (450 µRIU); the same protein injected at 0.625 to 5 µM in 10 mM HEPES, 150 mM NaCl, pH 7.2 (5 min, 5 µL/min); KD could be due to a mixture of dimer, tetramer and higher oligomer

T1 sequence (O00206 24-839): as above
Sequence of αS1-casein (Bos taurus) (P02662 16-214): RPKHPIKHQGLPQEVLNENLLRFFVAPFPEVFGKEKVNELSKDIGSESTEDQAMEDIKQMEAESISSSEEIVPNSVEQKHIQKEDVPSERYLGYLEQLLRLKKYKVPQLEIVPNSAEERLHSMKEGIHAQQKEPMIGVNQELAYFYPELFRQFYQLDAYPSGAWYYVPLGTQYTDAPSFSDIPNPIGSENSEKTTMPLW

αS1-casein (from UniProt P02662)
Kd (αS1-casein (Bos taurus)): 2000 nM

B1: αS1-casein truncated variant C2 (domain or fragment, human, UniProt P47710 16-145, looked up)
chain: RPKLPLRYPERLQNPSESSEPIPLESREEYMNGMNRQRNILREKQTDEIKDTRNESTQNCVVAEPEKMESSISSSSEEMSLSKCAEQFCRLNEYNQLQLQAAHAQEQIRRMNENSHVQVPFQQLNQLAAY
notes: human αS1-casein, residues 16-145; Amplified from pET TS001, which codes for an N-terminal His6 tag; also called pET C2; source: E. coli, purified (NTA column chromatography); not shown: His6, C-terminal, kept
IL-8 secretion of TLR4+ cells after 24 h with 15 nM protein (sandwich ELISA) [1]: 5.2 ng/mL | fluorescence intensity on TLR4+ cells over TLR4- cells (fold) [2]: 2.2 fold

B2: synthetic peptide V77-E92 of αS1-casein (peptide)
peptide: VAEPEKMESSISSSSE
IL-8 secretion of TLR4+ cells after 24 h with 1.5 µM peptide (sandwich ELISA) [3]: 0.95 ng/mL

B3: recombinant human αS1-casein (natural protein, UniProt P47710 16-185, looked up)
chain: RPKLPLRYPERLQNPSESSEPIPLESREEYMNGMNRQRNILREKQTDEIKDTRNESTQNCVVAEPEKMESSISSSSEEMSLSKCAEQFCRLNEYNQLQLQAAHAQEQIRRMNENSHVQVPFQQLNQLAAYPYAVWYYPQIMQYVPFPPFSDISNPTAHENYEKNNVMLQW
notes: human αS1-casein (CSN1S1), from plasmid pET TS001; C1 and C2, made from the same plasmid, begin at residue 16 and N1-N4 end at 185, so it probably lacks the signal peptide (1-15); Not phosphorylated (made in E. coli); also called full-length αS1-casein; full-size αS1-casein; source: E. coli, purified (NTA column chromatography); not shown: His6, N-terminal, kept
IL-8 secretion of TLR4+ cells after 24 h with 15 nM protein (sandwich ELISA) [1]: 23.3 ng/mL | Kd [4]: 2200 nM | Kd [5]: 2000 nM | stoichiometry N [5]: 4

B4: in vitro phosphorylated αS1-casein (P-αS1-casein) (natural protein, human, UniProt P47710 16-185, looked up)
chain: RPKLPLRYPERLQNPSESSEPIPLESREEYMNGMNRQRNILREKQTDEIKDTRNESTQNCVVAEPEKMESSISSSSEEMSLSKCAEQFCRLNEYNQLQLQAAHAQEQIRRMNENSHVQVPFQQLNQLAAYPYAVWYYPQIMQYVPFPPFSDISNPTAHENYEKNNVMLQW
modifications: phosphorylated in vitro; the sites of this preparation are not stated
notes: human αS1-casein (CSN1S1), the recombinant protein of m1 after in vitro phosphorylation; source: phosphorylated in vitro
Kd [5]: 500 nM

B5: αS1-casein truncated variant N1 (domain or fragment, human, UniProt P47710 35-185, looked up)
chain: EPIPLESREEYMNGMNRQRNILREKQTDEIKDTRNESTQNCVVAEPEKMESSISSSSEEMSLSKCAEQFCRLNEYNQLQLQAAHAQEQIRRMNENSHVQVPFQQLNQLAAYPYAVWYYPQIMQYVPFPPFSDISNPTAHENYEKNNVMLQW
IL-8 secretion of TLR4+ cells after 24 h with 15 nM protein (sandwich ELISA) [1]: 7.5 ng/mL

B6: αS1-casein truncated variant C1 (domain or fragment, human, UniProt P47710 16-163, looked up)
chain: RPKLPLRYPERLQNPSESSEPIPLESREEYMNGMNRQRNILREKQTDEIKDTRNESTQNCVVAEPEKMESSISSSSEEMSLSKCAEQFCRLNEYNQLQLQAAHAQEQIRRMNENSHVQVPFQQLNQLAAYPYAVWYYPQIMQYVPFPP
notes: human αS1-casein, residues 16-163; Amplified from pET TS001, which codes for an N-terminal His6 tag; also called pET C1; source: E. coli, purified (NTA column chromatography); not shown: His6, C-terminal, kept
IL-8 secretion of TLR4+ cells after 24 h with 15 nM protein (sandwich ELISA) [1]: 5.2 ng/mL | fluorescence intensity on TLR4+ cells over TLR4- cells (fold) [2]: 2.3 fold

B7: αS1-casein truncated variant N2 (domain or fragment, human, UniProt P47710 57-185, looked up)
chain: REKQTDEIKDTRNESTQNCVVAEPEKMESSISSSSEEMSLSKCAEQFCRLNEYNQLQLQAAHAQEQIRRMNENSHVQVPFQQLNQLAAYPYAVWYYPQIMQYVPFPPFSDISNPTAHENYEKNNVMLQW
IL-8 secretion of TLR4+ cells after 24 h with 15 nM protein (sandwich ELISA) [1]: 4.8 ng/mL

B8: αS1-casein truncated variant N4 (domain or fragment, human, UniProt P47710 93-185, looked up)
chain: EMSLSKCAEQFCRLNEYNQLQLQAAHAQEQIRRMNENSHVQVPFQQLNQLAAYPYAVWYYPQIMQYVPFPPFSDISNPTAHENYEKNNVMLQW
IL-8 secretion of TLR4+ cells after 24 h with 15 nM protein (sandwich ELISA) [1]: -2.5 ng/mL
